Assay in all cases: PK/LD coupled enzyme kinetics (KM app)
Common to all, as to conditions: Mg2+

Substrate in data set [1]: Nc1ncnc2c1ncn2[C@@H]1O[C@H](COP(=O)(O)OP(=O)(O)OP(=O)(O)O)[C@@H](O)[C@H]1O
Type of data set: biochemical, Plesiomonas shigelloides.

Substrate in data set [2]: CC(=O)N[C@@H]1[C@@H](O)[C@H](O)[C@@H](CO)O[C@@H]1O
Type of data set: biochemical, Vibrio vulnificus.

Substrate in data set [3]: Nc1ncnc2c1ncn2[C@@H]1O[C@H](COP(=O)(O)OP(=O)(O)OP(=O)(O)O)[C@@H](O)[C@H]1O
Type of data set: biochemical, Vibrio vulnificus.

Broadly, the Km is the concentration of substrate that gives half-maximal velocity.

B1: N-acetylglucosamine kinase (PsNagK) (Plesiomonas shigelloides 302-73) (protein)
chain: MYYGFDIGGTKIEFGAFDADLVRVARERVATPTESYAAFLDAIVTLVNNADAEFGVKGTVGIGIPGIADVETGKLLTSNIPAAMGHTLQRDLEERLQRPVKIENDANCFALSEAWDEDLRGEPSVLGLILGTGVGGGLIFNGKVHSGRANIAGEIGHTRLPYDALKLLGMENAPIFPCGCKNSGCIDNYLSGRGFEQLYDHYFSEKLSAPEIIAHYEQGERRAVQHVERFMELLAICLANIFTCLDPHVVVLGGGLSNFELIYQELPKRLPAHLLHVAKLPKIIKARHGDAGGVRGAAFLNLA
notes: His-tagged protein
As to B1, the Km in data set [1] was 290 ± 20 µM.

B2: N-acetylglucosamine kinase (NagK) (Vibrio vulnificus CMCP6) (protein)
chain: MYYGFDVGGTKIEFGAFNEKLERVATERVPTPTDDYPLLLETIAGLVAKYDQEFACEGKIGLGLPGMEDADDATVLTVNVPAAKGKPLRADLEAKIGRSVKIENDANCFALSEAWDEELQDAPSVMGLILGTGFGGGLIYEGKVFSGRNNVAGELGHMRLPLDAWFHLGDNAPLLGCGCGKKGCLDSYLSGRGFELLYAHYYGEEKKAIDIIKANAAGDEKAAEHVERFMELLAICFGNIFTANDPHVVALGGGLSNFELIYEEMPKRVPKYLLSVAKCPKIIKAKHGDSGGVRGAAFLNIKG
Turning to B2, the Km worked out at 210 ± 60 µM in data set [2] and 41 ± 9 µM in data set [3].

The values are drawn from article PMC10031466, “The ROK kinase N-acetylglucosamine kinase uses a sequential random enzyme mechanism with successive conformational changes upon each substrate binding” (The Journal of Biological Chemistry, 2023).
